Experimental findings from patent US20250382362A1 (UNIVERSIT TSKLINIKUM REGENSBURG, published 2025) are described below.

Test [1] has as its target T1, IL3 peptide, amino acids 26-48 (mature) / 45-67 (native) (human).
T1 construct: Peptide in which amino acids 22-25 are deleted
T1 peptide: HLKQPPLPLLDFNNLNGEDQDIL
Kind of test: ELISA on coated linear IL3 peptide. On the procedure:
(§1) Peptides were coated overnight in PBS in Nunclon 96 Flat Bottom Transparent Polystyrol plates (Thermo Fisher) at a concentration of 10 μg/ml (60 μl/well). Then […] were washed three times with wash buffer (0.05% Tween 20 in PBS), followed by blocking for 2 hours at room temperature with 1% BSA/PBS. After another washing step with wash buffer, antibody GRT002-H16L2 was added (60 μl of a 10 μg/ml solution in 1% BSA/PBS) and incubated for 1 hour at room temperature. 1% BSA/PBS served as a control. After another washing step, GRT002-H16L2 was incubated with a secondary antibody (HRP-conjugated AffinePure fragment goat anti-human IgG; Jackson Immuno Research) for 1 hour at room temperature. After a final washing step, 100 μl of ABTS (2,2′-azino-bis(3-ethylbenzothiazoline-6-sulfonic acid) was added to each well. Absorption was measured in a infinite 200Pro reader (Tecan) at 405 nm.
(In general: In an ELISA, binding on a coated surface is turned into a signal by an enzyme label.)

Test [2] addresses T2, IL3 peptide, amino acids 28-48 (mature) / 47-67 (native) (human).
T2 construct: Peptide in which amino acids 22-27 are deleted
T2 peptide: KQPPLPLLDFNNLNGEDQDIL
Kind of test: ELISA on coated linear IL3 peptide. On the procedure: as §1

The target in test [3] is T3, IL3 peptide, amino acids 22-48 (mature) / 41-67 (native) (human).
T3 construct: Linear peptide derived from human IL3, coated on the plate
T3 peptide: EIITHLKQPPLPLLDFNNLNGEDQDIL
The test can be described thus: ELISA on coated linear IL3 peptide. The method, then: as §1

Test [4] has as its target T4, human IL3 (human, UniProt P08700 20-152).
T4 sequence: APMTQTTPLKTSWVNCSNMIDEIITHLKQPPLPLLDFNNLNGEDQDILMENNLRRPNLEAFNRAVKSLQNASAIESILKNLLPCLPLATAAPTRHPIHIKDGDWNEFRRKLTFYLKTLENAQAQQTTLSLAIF
Kind of test: cell-based or functional assay.

For test [5], the target named is T4, human IL3. The test can be described thus: cell-based or functional assay. This is another data set of the same source.
For test [6], the target named is T4, human IL3. Kind of test: cell-based or functional assay. This is another data set of the same source.
The target in test [7] is T4, human IL3. Kind of test: cell-based or functional assay. This is another data set of the same source.
In test [8] the target is T4, human IL3. The test can be described thus: cell-based or functional assay. The source holds these as a separate data set.
Test [9] deals with T4, human IL3. Kind of test: cell-based or functional assay. The source holds these as a separate data set.

Where two headings read alike, the source gives them in different places.

B1: GRT002-H16L2 (antibody, human IgG1, kappa, V domains shown)
VH: QVQLVQSGAEVKKPGASVKVSCKGSGFTFTDYALHWVRQAPGQRLEWMGLISTYYGDTTYNQRFKGRVTMTVDKSTSTAYMELSSLRSEDTAVYYCVITTVAGTDAMDYWGQGTLVTVSS
VL: DIQMTQSPSSLSASVGDRVTITCHASQNINVWLSWYQQKPGKAPKLLIYKASNLHTGVPSRFSGSGSGTDFTFTISSLQPEDIATYYCQQGYSYPYTFGGGTKLEIKR
notes: IgG1 of the G1m3 (heavy chain) and KM3 (light chain) allotype, lacks the C-terminal lysine; also called HC16 × LC2; humanized derivative of antibody P8C11
Take B1: the binding result in [1], in test [2] and in test [3] was “binds” in each case. Further, the “Inhibitory activity (block of IL-3 induced downregulation of CD131 on primary human basophils; chimeric P8C11 normalized to 100%)” value in test [4] was 100%.

B2: Chimeric P8C11 (antibody, V domains shown)
VH: QVQLQQSGAEMVRPGVSVKIACKGSGFTFTDYALHWVKQSHAKSLEWIGLISTYYGDTTYNQRFKGKATMTVDKSSSTAYMELARLTSEDSAIYYCVITTVAGTDAMDYWGQGTSVTVSS
VL: DIQMNQSPSSLSASLGDTITITCHASQNINVWLSWYQQKPGNIPKLLIYKASNLHTGVPSRFSGSGSGTGFTLTISSLQPEDIATYYCQQGYSYPYTFGGGTKLEIK
Consider B2, for which the “Inhibitory activity (block of IL-3 induced downregulation of CD131 on primary human basophils; chimeric P8C11 normalized to 100%)” value in test [5], in test [6], in test [7], in [8], in test [4] and in test [9] was 100% each time.
